Assay results as given in publication PMC2885309.

Molecular target: 47 aa syntaxin peptide corresponding to the SNARE interaction part of the syntaxin sequence (aa 201-248) (UniProt P32851)
Experiment: SPR; Biacore 2000, syntaxin peptide covalently immobilised on a CM5 chip; 0.13 mg/ml S-B in buffer B for 5 min; then washing or denaturing reagents 1 min each; 25°C

Sequence of S-B, fusion of brevin to the C-terminus of SNAP25 (chain): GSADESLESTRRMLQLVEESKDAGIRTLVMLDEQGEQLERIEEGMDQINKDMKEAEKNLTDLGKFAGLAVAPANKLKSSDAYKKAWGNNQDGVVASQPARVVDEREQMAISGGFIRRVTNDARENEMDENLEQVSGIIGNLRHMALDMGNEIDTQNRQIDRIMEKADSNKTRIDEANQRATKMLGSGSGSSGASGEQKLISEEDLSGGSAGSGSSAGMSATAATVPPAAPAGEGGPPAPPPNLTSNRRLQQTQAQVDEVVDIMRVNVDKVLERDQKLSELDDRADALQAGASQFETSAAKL

S-B, fusion of brevin to the C-terminus of SNAP25
percent of originally bound S-B resistant to the harsh treatments: < 50%
